Data reported in US20030229922A1, “Materials and methods for the modification of plant cell wall polysaccharides” (GENESIS RESEARCH AND DEVELOPMENT CORPORATION LTD., priority 1998, published 2003).

Substrate: O=P(O)(O)O[C@H]1O[C@H](CO)[C@@H](O)[C@H](O)[C@H]1O
Assay: purified protein, by the assay type
Conditions: other: E. grandis UGP; SEM 0.002

B1: Eucalyptus grandis UGP (UDP-glucose pyrophosphorylase), SEQ ID NO: 79 (DNA; protein SEQ ID NO: 103) (Eucalyptus grandis) (protein)
chain: VLFTHLPPQKPNRISLLLFFIFHITTFLLLLLLLSVLSTFISIAVSLSDPELFFASPPMAAAATLSAPDAAKLSQLKSAVSGLGQISESEKNGFINLVSRYLSGEAQHVDWSKIQTPTDEIVVPYDSLAPTPQDPAATKSLLDKLVVLKLNGGLGTTMGCTGPKSVIEVRNGLTFLDLIVIQIENLNTKYGCNVPLLLMNSFNTHDDTLKIVEKYANSNIDIHTFNQSQYPRLVVEDFMPLPCKGQTGKDGWYPPGHGDVFASLMNSGKLDALLSQGKEYVFAANSDNLGAIVDLKILNHLMTNKNEYCMEVTPKTLADVKGGTLISYEGKVQLLEIAQVPDEHINEFKSIEKFKIFNTNNLWVNLKAIKRLVEAQALKMEIIPNPKEVDGIKVLQLETAAGAAIKFFDNAIGINVPRSRFLPVKATSDLLLVQSDLYTLVDGFVERNKARTNPSNPSIELGPEFKKVGNFLSRFKSIPSIIELDSLKVSGDVWFGTGITLKGKVTIAAKPGVKLEIPDGVVLENKEIHGPEDL
**Q.** How did the Km turn out when B1 was run?
**A.** 126 µM
